± gives the uncertainty stated by the source.
Assay: self-splicing fitness, log relative to wild type (ln ratio); higher = more splicing; Tetrahymena group I intron in knt gene, E. coli kanamycin selection, DiMSum; sequences stand for … in CUCUCU…GGAGGGAAAAGUUAUCAGGCAUGCACCUGGUAGCUAGUCUUUAAACCAAUAGAUUGCAUCGGUUUAAAAGGCAAGACCGUCAAAUUGCGGGAAAGGGGUCAACAGCCGUUCAGUACCAAGUCUCAGGGGAAACUUUGAGAUGGCCUUGCAAAGGGUAUGGUAAUAAGCUGACGGACAUGGUCCUAACCACGCAGCCAAGUCCUAAGUCAACAGAUCUUCUGUUGAUAUGGAUGCAGUUCACAGACUAAAUGUCGGUCGGGGAAGAUGUAUUCUUCUCAUAAGAUAUAGUCGGACCUCUCCUUAAUGGGAGCUAGCGGAUGAAGUGAUGCAACACUGGAGCCGCUGGGAACUAAUUUGUAUGCGAAAGUAUAUUGAUUAGUUUUGGAGUACUCGUGGUCG
Outline: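 Colonies from six replicate transformations of E. coli BL21(DE3) were pooled and amplicon-sequenced on an Illumina HiSeq 2500. The library placed an intron with all eight P1ex-region nucleotides randomised inside the knt kanamycin-resistance gene on pET-22b(+), and cells grew overnight at 37°C or 30°C on LB agar with or without 25 μg/mL kanamycin (plus 100 μg/mL carbenicillin, 50 μM IPTG, 0.2% rhamnose). Fitness is the DiMSum error-weighted combination of wild-type-normalised replicate fold changes, kanamycin versus none.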

| Sequence | self-splicing fitness (ln) (30 °C) | self-splicing fitness (ln) (37 °C) |
| --- | --- | --- |
| GUUGAGCAAUAUUACGUAGC | -0.983 ± 0.2 | -2.07 ± 0.35 |
| AAGAAGCAAUAUUACGCUGG | -2.37 ± 0.2 | -0.515 ± 0.2 |
| UCUCAGCAAUAUUACGCAAG | -4.47 ± 0.39 | -2.02 ± 0.2 |
| CGUGAGCAAUAUUACGUCCG | -1.95 ± 0.16 | -0.866 ± 0.22 |
| CUUAAGCAAUAUUACGCCCU | -3.17 ± 0.32 | -1.96 ± 0.43 |
| CCAAAGCAAUAUUACGUUCG | -0.496 ± 0.055 | 0.165 ± 0.069 |
| GUCGAGCAAUAUUACGUGAU | -2.2 ± 0.15 | -2.11 ± 0.18 |
| GGCUAGCAAUAUUACGGUCG | 0.0358 ± 0.11 | -0.669 ± 0.12 |
| GUCGAGCAAUAUUACGGCAU | -1.04 ± 0.067 | 0.111 ± 0.083 |
| CCGUAGCAAUAUUACGGCGG | -4.06 ± 0.3 | -2.97 ± 0.26 |
| UGCCAGCAAUAUUACGAGUC | -3.49 ± 0.16 | -1.6 ± 0.16 |
| GUCCAGCAAUAUUACGUGAU | -0.729 ± 0.047 | -0.345 ± 0.071 |
| GACGAGCAAUAUUACGAACA | -0.347 ± 0.3 | -1.44 ± 0.3 |
| CCCGAGCAAUAUUACGCCGA | -3.02 ± 0.39 | -2.14 ± 0.36 |
| UACGAGCAAUAUUACGGAAU | -2.71 ± 0.27 | -2.76 ± 0.34 |
| CGCGAGCAAUAUUACGUUGU | -3.93 ± 0.28 | -2.4 ± 0.36 |
| CCCGAGCAAUAUUACGAUUC | -4.01 ± 0.3 | -2.13 ± 0.18 |
| UAAUAGCAAUAUUACGACGC | -2.84 ± 0.34 |  |
| UAAAAGCAAUAUUACGAUUU | -1.36 ± 0.11 | -0.59 ± 0.11 |
| CUGAAGCAAUAUUACGUGUG | -0.196 ± 0.046 | -0.0989 ± 0.067 |
| GUGUAGCAAUAUUACGAGCU | -2.36 ± 0.17 | -0.678 ± 0.21 |
| UAAUAGCAAUAUUACGCCUG | -0.203 ± 0.13 | -0.254 ± 0.16 |
| GUUUAGCAAUAUUACGUGGU |  | -1.23 ± 0.44 |
| GGACAGCAAUAUUACGGCAA | -1.32 ± 0.12 | -0.645 ± 0.12 |
| UGGAAGCAAUAUUACGAUGC | -1.67 ± 0.25 | -1.13 ± 0.31 |

| Sequence | self-splicing fitness (ln) (30 °C) | self-splicing fitness (ln) (37 °C) |
| --- | --- | --- |
| UCCUAGCAAUAUUACGCGAU | -3.18 ± 0.28 | -2.65 ± 0.5 |
| AUUUAGCAAUAUUACGUGGC | -3.57 ± 0.43 | -1.69 ± 0.32 |
| AACAAGCAAUAUUACGAAAA | -1.7 ± 0.15 | -2.39 ± 0.19 |
| GCUUAGCAAUAUUACGUGCG | -1.23 ± 0.09 | -0.6 ± 0.12 |
| UGGCAGCAAUAUUACGUCCU | -0.363 ± 0.11 | 0.0307 ± 0.15 |
| UGCGAGCAAUAUUACGUCGG |  | -1.91 ± 0.26 |
| UCUCAGCAAUAUUACGAAGG | -2.79 ± 0.19 | -0.314 ± 0.14 |
| ACUUAGCAAUAUUACGUCAU | -3.1 ± 0.2 | -1.56 ± 0.17 |
| AGUCAGCAAUAUUACGGGUG | -1.82 ± 0.084 | -0.948 ± 0.12 |
| GUUGAGCAAUAUUACGGGUA | -2.46 ± 0.26 |  |
| CGUCAGCAAUAUUACGCGAG | -4.12 ± 0.36 | -0.926 ± 0.17 |
| UUCCAGCAAUAUUACGUUUA | -0.628 ± 0.083 | -0.59 ± 0.075 |
| GCUAAGCAAUAUUACGGUUC | -1.72 ± 0.097 | -0.788 ± 0.11 |
| AGAAAGCAAUAUUACGCGGG | -2.43 ± 0.24 | -2.25 ± 0.26 |
| UCGUAGCAAUAUUACGCUAG | -2.95 ± 0.26 | -2.32 ± 0.29 |
| ACUCAGCAAUAUUACGCCCC | -1.48 ± 0.12 | 0.148 ± 0.18 |
| ACCCAGCAAUAUUACGGAGC | -1.06 ± 0.083 | -0.369 ± 0.1 |
| UCCAAGCAAUAUUACGCGUC | -3.21 ± 0.1 | -2.63 ± 0.11 |
| ACCUAGCAAUAUUACGUAAG | -1.53 ± 0.065 | -0.172 ± 0.081 |
| GAGGAGCAAUAUUACGUAAA | -3.86 ± 0.17 | -1.32 ± 0.13 |
| AACGAGCAAUAUUACGGAUU | -2.3 ± 0.14 | -1.4 ± 0.19 |
| CUCCAGCAAUAUUACGCUGA | -2.59 ± 0.18 | -2.65 ± 0.22 |
| UUCGAGCAAUAUUACGGGGU | -2.88 ± 0.35 |  |
| CUAAAGCAAUAUUACGGGUA | -4.44 ± 0.32 | -2.3 ± 0.3 |
| UGCAAGCAAUAUUACGAUUA | -0.19 ± 0.077 | 0.163 ± 0.092 |

| Sequence | self-splicing fitness (ln) (30 °C) | self-splicing fitness (ln) (37 °C) |
| --- | --- | --- |
| UUAAAGCAAUAUUACGAAAG | -1.66 ± 0.11 | -1.13 ± 0.17 |
| UCUAAGCAAUAUUACGAGAC | -1.53 ± 0.12 | -2.52 ± 0.2 |
| UGGCAGCAAUAUUACGCGAC | -2.66 ± 0.35 | -1.64 ± 0.44 |
| UAGCAGCAAUAUUACGGCUA | -2.89 ± 0.39 | -1.33 ± 0.28 |
| GCUAAGCAAUAUUACGACUC | 0.21 ± 0.098 | 0.379 ± 0.14 |
| CACUAGCAAUAUUACGCACA | -0.953 ± 0.094 | -0.695 ± 0.08 |
| CUUCAGCAAUAUUACGGUGU | -4.48 ± 0.21 | -3.73 ± 0.25 |
| CGUGAGCAAUAUUACGGCGC | -3.69 ± 0.34 | -2.43 ± 0.37 |
| CUUCAGCAAUAUUACGAGCU | -3.82 ± 0.29 | -3.41 ± 0.33 |
| UUUUAGCAAUAUUACGAAGG |  | -1.85 ± 0.41 |
| UGGUAGCAAUAUUACGACAC | -2.43 ± 0.32 | -1.69 ± 0.18 |
| GACGAGCAAUAUUACGACUU | -0.586 ± 0.17 | 0.25 ± 0.19 |
| ACACAGCAAUAUUACGGUCU | -0.341 ± 0.05 | 0.298 ± 0.067 |
| AUUAAGCAAUAUUACGUCAC |  | -1.54 ± 0.4 |
| UUUAAGCAAUAUUACGUUAU | -3.18 ± 0.2 | -2.16 ± 0.22 |
| GUAGAGCAAUAUUACGCGAG | -1.69 ± 0.14 | -0.548 ± 0.14 |
| ACUGAGCAAUAUUACGCGGC | -3.69 ± 0.4 | -2.28 ± 0.28 |
| UCAUAGCAAUAUUACGAGAC | -2.84 ± 0.31 | -2.03 ± 0.34 |
| ACUGAGCAAUAUUACGCGGG | -2.64 ± 0.17 | -2.03 ± 0.18 |
| CAUCAGCAAUAUUACGGUAC | -2.95 ± 0.17 | -2.71 ± 0.18 |
| GCUAAGCAAUAUUACGGGAU | -2.86 ± 0.1 | -0.821 ± 0.081 |
| ACGUAGCAAUAUUACGAUCC | -1.03 ± 0.17 | -0.00168 ± 0.18 |
| AGCCAGCAAUAUUACGUGUA | -3.52 ± 0.14 | -1.34 ± 0.11 |
| UGGUAGCAAUAUUACGAGAA |  | -1.11 ± 0.36 |
| CAAUAGCAAUAUUACGUUUG | -2.52 ± 0.11 | -1.52 ± 0.11 |

| Sequence | self-splicing fitness (ln) (30 °C) | self-splicing fitness (ln) (37 °C) |
| --- | --- | --- |
| GGUAAGCAAUAUUACGUUCA | -0.432 ± 0.081 | 0.0273 ± 0.12 |
| UGUUAGCAAUAUUACGAUCA | -0.0398 ± 0.15 | 0.805 ± 0.15 |
| GAGCAGCAAUAUUACGUCUU | -3.01 ± 0.19 | -1.23 ± 0.15 |
| CUGUAGCAAUAUUACGGUUU | -4.11 ± 0.26 | -2.69 ± 0.32 |
| GUAUAGCAAUAUUACGAACG | -1.91 ± 0.32 |  |
| AAAUAGCAAUAUUACGACGA | -0.696 ± 0.099 | -0.228 ± 0.14 |
| AAUGAGCAAUAUUACGUGGA | -3.35 ± 0.32 | -3.04 ± 0.35 |
| UCUAAGCAAUAUUACGUGCU | -4.04 ± 0.34 | -2.37 ± 0.2 |
| GCUUAGCAAUAUUACGUGGU | -2.81 ± 0.15 | -1.93 ± 0.16 |
| AACUAGCAAUAUUACGCUCA | -0.21 ± 0.1 | 0.239 ± 0.14 |
| GUGUAGCAAUAUUACGUCAA | -1.16 ± 0.15 | -1.14 ± 0.15 |
| CUUCAGCAAUAUUACGAGUC |  | -2.56 ± 0.18 |
| CAUUAGCAAUAUUACGGCGA | -2.09 ± 0.3 | -3.32 ± 0.47 |
| GGCAAGCAAUAUUACGAUAG | -2.73 ± 0.19 | -2.18 ± 0.14 |
| GUCGAGCAAUAUUACGGGUA | -2.65 ± 0.27 | -2.91 ± 0.22 |
| AAGUAGCAAUAUUACGAUCU | -0.032 ± 0.1 | 0.3 ± 0.13 |
| AAUGAGCAAUAUUACGUCUC | -2.96 ± 0.23 | -2.19 ± 0.24 |
| AGUGAGCAAUAUUACGGGUC | -3.17 ± 0.28 | -3.06 ± 0.43 |
| CCCUAGCAAUAUUACGGCGC | -3.55 ± 0.21 | -3.28 ± 0.24 |
| CGUAAGCAAUAUUACGACCC | -2.71 ± 0.38 | -2.23 ± 0.23 |
| UGUGAGCAAUAUUACGACCU | -0.867 ± 0.17 | 0.0453 ± 0.26 |
| AAGAAGCAAUAUUACGAUAU | -1.66 ± 0.11 | -0.399 ± 0.12 |
| AAAAAGCAAUAUUACGAAAA | -2.26 ± 0.17 | -0.664 ± 0.14 |

From the supplement of paper PMC7877785
